Laboratory results published in US20220324932A1 (CSPC MEGALITH BIOPHARMACEUTICAL, published 2022).

T1: IL-2Rα (CD25) on the cell surface of mouse T cells (CTLL-2 cells; Treg cells of C57BL/6 mice) (mouse, UniProt P01590 22-268)
T1 sequence (looked up): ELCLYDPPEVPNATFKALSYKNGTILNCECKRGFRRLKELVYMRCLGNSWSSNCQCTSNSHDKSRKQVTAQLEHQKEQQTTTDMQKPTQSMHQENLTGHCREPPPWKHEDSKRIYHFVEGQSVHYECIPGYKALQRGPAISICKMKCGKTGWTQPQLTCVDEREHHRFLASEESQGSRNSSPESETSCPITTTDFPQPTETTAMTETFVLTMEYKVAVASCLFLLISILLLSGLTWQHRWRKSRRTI


Biological target: T1, IL-2Rα (CD25) on the cell surface of …
Assay: cell-based or functional assay

| fold decrease in bioactivity in inducing CTLL-2 cell growth, compared to parent IL-2 Aldesleukin [fold] | percentage of Treg cells in blood of C57BL/6 mice after treatment [%] | Binder |
| --- | --- | --- |
| ~49 | 0.32 | IL-2A2 (modified IL-2 protein with exogenous patch sequence IFKQTY replacing a portion of IL-2 Aldesleukin) (ligand) PTSSSTKKTQLQLEHLLLDLQMILNGINNYKNPKLTRMLIFKQTYPKKATELKHLQCLEEELKPLEEVLNLAQSKNFHLRPRDLISNINVIVLELKGSETTFMCEYADETATIVEFLNRWITFSQSIISTLT |
|  | 0.25 | PEG-20K-IL-2A2 (IL-2A2 conjugated with 20 kDa methoxy-PEG-amine) (ligand, 20 kDa methoxy-PEG-amine conjugated by mTGase to the engineered Q residue of the IFKQTY patch) PTSSSTKKTQLQLEHLLLDLQMILNGINNYKNPKLTRMLIFKQTYPKKATELKHLQCLEEELKPLEEVLNLAQSKNFHLRPRDLISNINVIVLELKGSETTFMCEYADETATIVEFLNRWITFSQSIISTLT |
